Usually IC50 stands for the concentration that inhibits the measured activity by half. Higher therefore signals lower potency.

Here are results for ten substances from patent US20150150960A1, “PROTECTION AGAINST DENGUE VIRUS AND PREVENTION OF SEVERE DENGUE DISEASE” (priority 2010, published 2015).

Assay [1] concerns the target target splenocytes pulsed with NS2B108-122, NS3198-212 and NS3237-251 together (I-A^b-restricted).
Assay [2] deals with NS31753-1761 / HLA B*0702 (DENV2 strain S221; human).
Assay [3] deals with NS4A2140-2148 / HLA A*0201 (DENV2 strain S221; human).
Assay [4] addresses NS53375-3383 / HLA A*0101 (DENV2 strain S221; human).
Assay [5] has as its target NS52966-2980 / HLA DRB1*0101 (DENV2 strain S221; human).
Assay [6] addresses NS4B2296-2304 / HLA B*0702 (DENV2 strain S221; human).
Assay [7] deals with E631-639 / HLA A*0201 (DENV2 strain S221; human).
The target in assay [8] is E451-459 / HLA A*0101 (DENV2 strain S221; human).
Assay [9] concerns the target NS2A1199-1213 / HLA DRB1*0101 (DENV2 strain S221; human).
Assay [10] has as its target NS52646-2655 / HLA B*0702 (DENV2 strain S221; human).
For assay [11], the target named is NS4B2399-2407 / HLA A*0101 (DENV2 strain S221; human).
The target of assay [12] is NS31700-1709 / HLA B*0702 (DENV2 strain S221; human).
Assay [13] deals with NS53077-3085 / HLA B*0702 (DENV2 strain S221; human).
For assay [14], the target named is NS4B2280-2289 / HLA B*0702 (DENV2 strain S221; human).
The target of assay [15] is NS4A2205-2213 / HLA A*0201 (DENV2 strain S221; human).
In assay [16] the target is NS2B1383-1391 / HLA A*0201 (DENV2 strain S221; human).
The target in assay [17] is NS31978-1987 / HLA B*0702 (DENV2 strain S221; human).
For assay [18], the target named is NS53079-3087 / HLA A*1101 (DENV2 strain S221; human).
Assay [19] addresses NS31509-1517 / HLA A*1101 (DENV2 strain S221; human).
Assay [20] addresses NS53058-3066 / HLA A*0201 (DENV2 strain S221; human).
For assay [21], the target named is C53-67 / HLA DRB1*0101 (DENV2 strain S221; human).
In assay [22] the target is NS2B1355-1363 / HLA A*0201 (DENV2 strain S221; human).
The target in assay [23] is NS31808-1817 / HLA B*0702 (DENV2 strain S221; human).
Assay [24] deals with NS31465-1473 / HLA A*0201 (DENV2 strain S221; human).
Assay [25] addresses NS4B2315-2323 / HLA A*1101 (DENV2 strain S221; human).
For assay [26], the target named is NS11090-1099 / HLA A*0101 (DENV2 strain S221; human).
In assay [27] the target is NS2B1356-1370 / HLA DRB1*0101 (DENV2 strain S221; human).
The target of assay [28] is NS2B1450-1459 / HLA A*0201 (DENV2 strain S221; human).
Assay [29] addresses NS53112-3121 / HLA A*1101 (DENV2 strain S221; human).
The target in assay [30] is NS2A1251-1259 / HLA A*0101 (DENV2 strain S221; human).
The target in assay [31] is NS4A2074-2083 / HLA A*1101 (DENV2 strain S221; human).
For assay [32], the target named is NS52885-2894 / HLA B*0702 (DENV2 strain S221; human).
Assay [33] deals with NS52608-2616 / HLA A*1101 (DENV2 strain S221; human).
Assay [34] addresses NS2A1212-1221 / HLA B*0702 (DENV2 strain S221; human).
Assay [35] deals with NS31682-1690 / HLA B*0702 (DENV2 strain S221; human).
Assay [36] has as its target NS31608-1617 / HLA A*1101 (DENV2 strain S221; human).
The target in assay [37] is NS32013-2022 / HLA A*0201 (DENV2 strain S221; human).
Assay [38] addresses NS53283-3291 / HLA A*1101 (DENV2 strain S221; human).
In assay [39] the target is NS31863-1871 / HLA A*1101 (DENV2 strain S221; human).
The target of assay [40] is NS31681-1689 / HLA A*0201 (DENV2 strain S221; human).
Assay [41] deals with NS4B2280-2289 / HLA B*0702 (DENV2 strain S221; human). The source holds these as a separate data set.
The target in assay [42] is purified HLA B*0702 molecules (human). In words: inhibition of radiolabeled probe peptide binding to purified HLA.
In assay [43] the target is NS31742-1756 / HLA DRB1*0101 (DENV2 strain S221; human).
Assay [44] has as its target NS32070-2078 / HLA B*0702 (DENV2 strain S221; human).
For assay [45], the target named is purified HLA A*0201 molecules (human). The experiment in a line: inhibition of radiolabeled probe peptide binding to purified HLA.
Assay [46] concerns the target NS2A1192-1200 / HLA A*0101 (DENV2 strain S221; human).

As for “CD4+ T cells of DENV2-infected IFN-α/βR-/- mice (C57BL/6 background) (cells without a defined receptor)”, in assay [1], the in vivo cytotoxicity assay, percentage killing came to 30%.
As to “PBMC from HLA matched DENV seropositive human donors (cells without a defined receptor)”, the T cell responses [SFC] human (IFNγ ELISPOT) in [2] came out at 410 SFC; in [3], 297 SFC; in assay [4], 143 SFC; in [5] it was 729 SFC; in assay [6], 460 SFC; in assay [7], 393 SFC. Further, the T cell responses [SFC] human (IFNγ ELISPOT) is 67 SFC in assay [8]; 249 SFC in assay [9]; 0 SFC in assay [10]; 92 SFC in assay [11]; 1430 SFC in assay [12]; 390 SFC in [13]. The T cell responses [SFC] human (IFNγ ELISPOT) was 0 SFC in [14]; 301 SFC in assay [15]; 434 SFC in assay [16]; 1820 SFC in assay [17]; 0 SFC in assay [18]; 0 SFC in assay [19]. The T cell responses [SFC] human (IFNγ ELISPOT) in assay [20] stood at 597 SFC; in assay [21], 314 SFC; in assay [22] it was 417 SFC; in assay [23], 232 SFC; in assay [24], 495 SFC; in [25], 0 SFC. In addition, the T cell responses [SFC] human (IFNγ ELISPOT) in assay [26] turned out to be 104 SFC; in assay [27], 279 SFC; in assay [28] it was 588 SFC; in [29] it was 0 SFC; in [30], 143 SFC; in assay [31], 3090 SFC. In addition, the T cell responses [SFC] human (IFNγ ELISPOT) in [32] stood at 1340 SFC; in [33], 0 SFC; in [34], 335 SFC; in assay [35], 207 SFC; in assay [36] it was 880 SFC; in assay [37] it was 312 SFC. For the same substance, the T cell responses [SFC] human (IFNγ ELISPOT) in assay [38] stood at 800 SFC; in [39], 0 SFC; in assay [40], 401 SFC.
“splenic CD8+ T cells of DENV2 (S221)-infected HLA B*0702 transgenic IFN-α/βR+/+ mice (cells without a defined receptor)”: the IFNγ ELISPOT (SFC/10^6 CD8+ T cells) in [41] was found to be 50.
Turning to NS4B2296-2305 (peptide), the concentration for half-maximal inhibition (IC50) in assay [42] is > 1000 nM.
Consider “splenic CD8+ T cells of DENV2 (S221)-infected HLA A*1101 transgenic IFN-α/βR-/- mice (cells without a defined receptor)”, for which the T cell responses [SFC] mouse (IFNγ ELISPOT) in assay [18] stood at 105 SFC; in [19], 436 SFC; in assay [25], 712 SFC; in assay [31], 148 SFC; in assay [36] it was 1000 SFC; in [38], 358 SFC. The T cell responses [SFC] mouse (IFNγ ELISPOT) in [39] stood at 208 SFC.
Consider “splenic CD4+ T cells of DENV2 (S221)-infected HLA DRB1*0101 transgenic IFN-α/βR-/- mice (cells without a defined receptor)”, for which the T cell responses [SFC] mouse (IFNγ ELISPOT) in [5] came to 851 SFC; in assay [43], 448 SFC; in assay [9], 764 SFC; in assay [21], 77 SFC; in assay [27] it was 65 SFC.
For the substance “splenic CD8+ T cells of DENV2 (S221)-infected HLA B*0702 transgenic IFN-α/βR-/- mice (cells without a defined receptor)”, the T cell responses [SFC] mouse (IFNγ ELISPOT) in assay [2] was determined as 509 SFC; in assay [6], 1010 SFC; in assay [10], 994 SFC; in [12], 1060 SFC; in assay [13], 487 SFC; in [14], 1540 SFC. Besides, the T cell responses [SFC] mouse (IFNγ ELISPOT) in assay [44] was 1850 SFC; in [23], 364 SFC; in assay [32] it was 811 SFC; in assay [34] it was 400 SFC; in [35], 1290 SFC.
With NS31681-1689 (peptide), the IC50 in [45] was determined as 18 nM. This counts as double-digit nanomolar.
On to “splenic CD8+ T cells of DENV2 (S221)-infected HLA A*0201 transgenic IFN-α/βR-/- mice (cells without a defined receptor)”, for which the T cell responses [SFC] mouse (IFNγ ELISPOT) turned out to be 384 SFC in [3]; 265 SFC in assay [7]; 519 SFC in assay [16]; 353 SFC in assay [20]; 207 SFC in [24]; 417 SFC in assay [37]. Besides, in assay [40], the T cell responses [SFC] mouse (IFNγ ELISPOT) came to 299 SFC.
Consider “splenic CD8+ T cells of DENV2 (S221)-infected HLA A*0101 transgenic IFN-α/βR-/- mice (cells without a defined receptor)”, for which the T cell responses [SFC] mouse (IFNγ ELISPOT) in assay [4] was determined as 495 SFC; in assay [8], 327 SFC; in [11] it was 153 SFC; in assay [46] it was 430 SFC; in assay [26] it was 228 SFC; in assay [30], 465 SFC.
